The results in this text go back to US20250353911A1 (INHIBRX BIOSCIENCES, published 2025).

Substitutions are numbered along the chain they refer to.

B1: cx12032 (B10a.v2.1 VHH x hz4A01v51 VHH) (bispecific antibody)
chain: EVQLLESGGGEVQPGGSLRLSCAASGSIANVDLMAWHRQAPGKQREPIAVINDAGSTYYAESVKGRFTISRDNAKNTLYLQMNSLRAEDTAVYYCNTATWRGGERYADWGQGTLVTVKPEVQLVESGGGEVQPGGSLRLSCAASGFTFSTSGMVWVRQAPGKGLEWVSTISDDARITVYAESVKGRFTISRDNAKNTVYLQMNSLRAEDTAVYYCATYRAGSRIGSYEDYYRGQGTLVTVKPGG
B2: cx12007 (B10a.v2.4 VHH x hz4A01v51.12 VHH) (bispecific antibody)
chain: EVQLLESGGGKVQPGGSLRLSCAASGSIANVDLMAWHRQAPGKQREPIAVINDAGSTYYAESVKGRFTISRDNAKNTLYLQMNSLRAEDTAVYYCNTATWRGGERYADWGQGTLVTVEPGSGGGSEVQLLESGGGKVQPGGSLRLSCAASGFTFSTSGMVWVRQAPGKGLEWVSTISDDARITVYAESVKGRFTISRDNAKNTVYLQMNSLRAEDTAVYYCATYRAGSRIGSYEDYYRGQGTLVTVEPGG
B3: cx12008 (bispecific antibody)
single polypeptide, format of FIG. 5(i): B2 chain with K11E, E118R, L130V, K136E, E247R
notes: anti-FcRn VHH linked to anti-albumin VHH
B4: cx12006 (bispecific antibody)
single polypeptide, format of FIG. 5(i): B2 chain with E1Q, E126Q
notes: as for B3
B5: 4A01v5 (Fc fusion, not shown: a dimerising Fc or GST; small tags and cut ends)
VHH: EVQLVESGGGEVQPGGSLRLSCAASGFAFSTSGMVWVRQAPGKGLEWVSTISDEGRIIRYAESVKGRFTISRDNAKNTLYLQMNSLRAEDTAVYYCATYRAGSRIGSYEDYYRGQGTLVTVKP
notes: also called Hz4A01v5
B6: 4A01v6 (Fc fusion, not shown: a dimerising Fc or GST; small tags and cut ends)
VHH: B5 VHH with E54S
notes: also called Hz4A01v6
B7: 4A01v8 (Fc fusion, not shown: a dimerising Fc or GST; small tags and cut ends)
VHH: B5 VHH with E54N, G55A
notes: also called Hz4A01v8
B8: 4A01v4 (Fc fusion, not shown: a dimerising Fc or GST; small tags and cut ends)
VHH: B5 VHH with G55S
notes: also called Hz4A01v4
B9: cx12003 (bispecific antibody)
single polypeptide, format of FIG. 5(i): B2 chain with E1Q, K11E, E126Q, K136E
notes: as for B3
B10: 4A01v3 (Fc fusion)
VHH: B5 VHH with E54D, G55A
notes: also called Hz4A01v3; not shown: Human Fc carrier and its linker
B11: 4A01v3-7 (Fc fusion)
VHH: B5 VHH with E54D, G55A, L79V
notes: also called Hz4A01v3-7; not shown: Human Fc carrier and its linker
B12: 4A01v3-3 (Fc fusion, not shown: a dimerising Fc or GST; small tags and cut ends)
VHH: B5 VHH with V35A, E54D, G55A
notes: also called Hz4A01v3-3
B13: 4A01v9 (Fc fusion, not shown: a dimerising Fc or GST; small tags and cut ends)
VHH: B5 VHH with E54D, G55T
notes: also called Hz4A01v9
B14: 4A01v3-8 (Fc fusion)
VHH: B5 VHH with E54D, G55A, R113W
notes: also called Hz4A01v3-8; not shown: Human Fc carrier and its linker
B15: 4A01v1 (Fc fusion)
VHH: B5 VHH with E54D, G55S
notes: also called Hz4A01v1; not shown: Human Fc carrier and its linker
B16: 4A01v3-1 (Fc fusion, not shown: a dimerising Fc or GST; small tags and cut ends)
VHH: B5 VHH with A28T, E54D, G55A
notes: also called Hz4A01v3-1
B17: 4A01v3-5 (Fc fusion)
VHH: B5 VHH with V37Y, E54D, G55A
notes: also called Hz4A01v3-5; not shown: Human Fc carrier and its linker
B18: 4A01v3-4 (Fc fusion)
VHH: B5 VHH with V35S, E54D, G55A
notes: also called Hz4A01v3-4; not shown: Human Fc carrier and its linker

T1 sequence (chain, as listed by the source limits assumed, chain 1 of 2): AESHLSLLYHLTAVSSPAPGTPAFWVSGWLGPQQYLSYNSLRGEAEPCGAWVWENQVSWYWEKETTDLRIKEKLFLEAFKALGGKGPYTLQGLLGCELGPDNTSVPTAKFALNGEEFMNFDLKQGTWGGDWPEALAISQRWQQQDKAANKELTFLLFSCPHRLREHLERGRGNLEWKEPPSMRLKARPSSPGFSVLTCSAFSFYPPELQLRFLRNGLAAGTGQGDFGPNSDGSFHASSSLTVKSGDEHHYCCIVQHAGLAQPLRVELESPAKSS
T1 sequence (b2m, as listed by the source limits assumed, chain 2 of 2): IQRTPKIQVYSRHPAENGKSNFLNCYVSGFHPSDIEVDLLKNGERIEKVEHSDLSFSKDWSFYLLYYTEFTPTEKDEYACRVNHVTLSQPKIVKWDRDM

The first assay addresses T1, human FcRn extracellular domain (ECD) fused to a transmembrane domain and an intracellular citrine, with … (human).
T1 construct: also called human FcRn overexpressed on CHO cells; FcRn transfected CHO cells
Description: flow cytometry, CHO cells transiently expressing human FcRn ECD-TM-citrine and B2M, pH 7.4, AF647 detection antibody. A general note: A flow cytometer gives signals particle by particle.
Description: (§1) Binding of anti-FcRn VHH polypeptides to human FcRn at neutral (7.4) or endosomal (6) pH was tested by flow cytometry using a CHO-based overexpression system or isolated human peripheral blood mononuclear cells (PBMC).
(§2) CHO cells were plated in 96-well plates at 50,000 cells per well and resuspended in PBS, pH 7.4 or a buffer containing 20 mM His, 150 mM NaCl, pH 6. Serial dilutions of test articles were prepared at 2× the final concentration in the buffers described above (pH 7.4 or pH 6) and added to the cell suspensions. Plates were incubated for 60 minutes at 4° C. After the incubation cells were washed in the respective buffer and then incubated for 30 minutes at 4° C. with a fluorescently labeled (AF647) antibody detecting the VHH polypeptides. Binding of the detection antibody to FcRn on transfected cells (citrine positive) was measured after a final wash using an iQue Screener (Sartorius).
In the case of B1, the “EC50 (read off the curve)” value is around 0.5 nM.

The target of the next assay is T2, Human serum albumin (HSA) (human, UniProt P02768 25-609).
T2 construct: also called human albumin; recombinant human albumin
T2 sequence (P02768 25-609): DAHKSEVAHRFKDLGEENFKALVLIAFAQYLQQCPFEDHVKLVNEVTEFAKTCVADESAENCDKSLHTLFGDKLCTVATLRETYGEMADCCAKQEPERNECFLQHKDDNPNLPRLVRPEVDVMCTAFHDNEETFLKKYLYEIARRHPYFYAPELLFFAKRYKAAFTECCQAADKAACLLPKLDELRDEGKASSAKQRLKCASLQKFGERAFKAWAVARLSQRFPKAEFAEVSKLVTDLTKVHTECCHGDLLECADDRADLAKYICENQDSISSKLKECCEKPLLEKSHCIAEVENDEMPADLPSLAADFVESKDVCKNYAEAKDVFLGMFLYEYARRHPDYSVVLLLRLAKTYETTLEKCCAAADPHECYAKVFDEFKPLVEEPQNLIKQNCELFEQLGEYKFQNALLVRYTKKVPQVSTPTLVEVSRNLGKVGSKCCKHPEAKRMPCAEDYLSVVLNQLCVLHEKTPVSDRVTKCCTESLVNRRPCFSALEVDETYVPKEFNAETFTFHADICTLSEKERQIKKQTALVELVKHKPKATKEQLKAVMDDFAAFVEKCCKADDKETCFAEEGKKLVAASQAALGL
In words: ELISA on coated human albumin, pH 5.5, HRP detection antibody, A450. In general terms: In an ELISA, binding on a coated surface is turned into a signal by an enzyme label.
Description: (§3) 96-well ELISA plates were coated with albumin protein in PBS overnight at 4° C., washed with PBS-T and then blocked with 5% milk powder in PBS-T for 1 h at room temperature. Serial dilutions of test articles were prepared in PBS pH 7.4 or a buffer containing 20 mM His, 150 mM NaCl, pH 5.5 and added to the plates. Plates were incubated for 1 h at room temperature. After the incubation cells were washed in the respective buffer and then incubated for 30 min at room temperature with a HRP-conjugated antibody detecting the polypeptides. Plates were washed in their respective buffers and TMB substrate was added and color allowed to develop. TMB substrate was stopped with an equal volume of stop solution (1M H₂SO₄). Absorbance at 450 nm was measured with a 96 well plate reader.
Take B2: the “EC50 (read off the curve)” value was around 0.4 nM.
B3: the “EC50 (read off the curve)” value is around 0.4 nM.
On the same count and under the same terms, with B4 the figure was around 0.4 nM.

The target in another assay is T3, Murine serum albumin (MSA) (mouse, UniProt P07724 25-608).
T3 construct: Bought protein (Sigma); also called murine albumin; mouse albumin
In words: ELISA on coated murine albumin, anti-human Fc HRP, A650, one site-total binding fit.
Description: (§4) Medisorp plates were coated with albumin protein at 2 μg/ml, 50 μl/well at 4° C. overnight (human, murine, and rat albumin-Sigma, cynomolgus monkey albumin-Abcam). 1× Fish Gelatin (blocking agent, Bethyl Laboratories) was added to albumin-coated wells followed by a 1 hour incubation at RT. Titrations of sdAb fusion proteins (starting at 100 nM, across 1:3 or down 1:4) were added and incubated for 1 hour at RT. Plates were washed 3 times with 0.1% D-PBST, and then anti-human Fc HRP antibody (1:2000 in 0.1% D-PBST, Jackson) was added and incubated for 30 minutes at RT. Plates were washed 3 times with 0.1% D-PBST, and then TMB substrate was added. Absorbance at 650 nm was read on a plate reader (Molecular Devices) and data were plotted using equation one site-total binding (Model: Y=Bmax*X/(Kd+X)+NS*X+Background, GraphPad Prism).
For the molecule B5, the Bmax is 1.09 A650 and the Kd came out at 0.189 nM.
On the same counts, the results for B6 are 1.09 A650 and 0.206 nM.
The like results for B7 were, in that order, 1.1 A650 and 0.226 nM.
On the same counts, the results for B8 are 1.1 A650 and 0.25 nM.

The next assay has as its target T1, human FcRn extracellular domain (ECD) …. Description: flow cytometry, CHO cells transiently expressing human FcRn ECD-TM-citrine and B2M, pH 6, AF647 detection antibody.
Description: as §1, §2
With B2, the “EC50 (read off the curve)” value was around 0.4 nM.
Still for that read-out and setting: with B9 the figure was around 0.5 nM; with B3, around 0.4 nM; with B4, around 0.4 nM.

For the next assay, the target named is T2, Human serum albumin (HSA). In words: ELISA on coated human albumin, pH 7.4, HRP detection antibody, A450.
Description: as §3
Regarding B2, the concentration for a half-maximal effect (EC50 (read off the curve)) is around 0.4 nM.
Same read-out and setting: the result for B9 reads around 0.4 nM; that for B3, around 0.4 nM.
Same read-out and setting: the result for B4 reads around 0.4 nM.

The target in another assay is T4, Rat serum albumin (RSA) (rat, UniProt P02770 25-608).
T4 construct: Bought protein (Sigma); also called rat albumin
T4 sequence (P02770 25-608): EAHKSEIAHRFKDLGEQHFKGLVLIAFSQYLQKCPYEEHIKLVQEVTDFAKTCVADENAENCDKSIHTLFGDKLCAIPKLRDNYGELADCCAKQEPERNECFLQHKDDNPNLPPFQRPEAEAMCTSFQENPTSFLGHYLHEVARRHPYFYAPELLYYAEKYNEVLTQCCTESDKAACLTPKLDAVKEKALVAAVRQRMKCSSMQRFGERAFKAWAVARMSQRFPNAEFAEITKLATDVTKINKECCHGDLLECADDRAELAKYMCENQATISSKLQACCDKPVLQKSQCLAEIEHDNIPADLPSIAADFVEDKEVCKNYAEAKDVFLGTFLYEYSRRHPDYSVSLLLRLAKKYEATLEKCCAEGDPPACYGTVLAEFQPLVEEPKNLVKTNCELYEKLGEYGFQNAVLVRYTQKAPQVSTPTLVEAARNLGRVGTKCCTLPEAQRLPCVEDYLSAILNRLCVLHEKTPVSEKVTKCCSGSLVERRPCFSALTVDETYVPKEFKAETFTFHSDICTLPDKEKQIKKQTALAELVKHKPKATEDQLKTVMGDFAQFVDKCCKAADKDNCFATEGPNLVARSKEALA
In words: ELISA on coated rat albumin, anti-human Fc HRP, A650, one site-total binding fit.
Description: as §4
B5 displayed a Bmax of 1 A650 and a dissociation constant Kd of 0.26 nM.
On the same counts, the results for B6 are 1.02 A650 and 0.273 nM.
The molecule B7 yielded a Bmax of 1.01 A650 and a Kd of 0.328 nM.
Take B8: the Bmax is 0.972 A650 and the affinity, expressed as Kd, was 0.32 nM.

The next assay deals with T4, Rat serum albumin (RSA). The assay is described as above. This is another data set of the same source.
Description: as §4
B10 gave a Kd of 0.162 nM.
Take B11: the Bmax amounted to 1.35 A650 and binding was characterised by a dissociation constant (Kd) of 0.123 nM.
B12 gave a Bmax of 1.32 A650 and a dissociation constant (Kd) of 0.152 nM.
On the same counts, the results for B13 are 1.27 A650 and 0.144 nM.
B14 gave a Kd of 0.169 nM.
Molecule B15 had a Bmax of 1.28 A650 and a dissociation constant (Kd) of 0.184 nM.
B16 came in with a Bmax of 1.28 A650 and a dissociation constant (Kd) of 0.13 nM.
On the same counts, the results for B17 are 1.35 A650 and 0.162 nM.
With B18, the Bmax stood at 1.41 A650 and binding was characterised by a dissociation constant (Kd) of 0.252 nM.

A further assay has as its target T1, human FcRn extracellular domain (ECD) …. In words: flow cytometry, CHO cells transiently expressing human FcRn ECD-TM-citrine and B2M, pH 6, AF647 detection antibody. This is another data set of the same source.
Description: as §1, §2
As for B1, the “EC50 (read off the curve)” value was around 0.6 nM.

A further assay has the same target. In words: flow cytometry, CHO cells transiently expressing human FcRn ECD-TM-citrine and B2M, pH 7.4, AF647 detection antibody. This is another data set of the same source.
Description: as §1, §2
On to B2, for which the “EC50 (read off the curve)” value is around 0.3 nM.
Still for that read-out and setting: with B9 the figure was around 0.3 nM.
Still for that read-out and setting: the result for B3 reads around 0.7 nM; that for B4, around 0.3 nM.

The next assay deals with T3, Murine serum albumin (MSA). Description: ELISA on coated murine albumin, anti-human Fc HRP, A650, one site-total binding fit. The source holds these as a separate data set.
Description: as §4
B10 gave a dissociation constant Kd of 0.121 nM.
Consider B11, for which the Bmax was found to be 1.32 A650 and the Kd was determined as 0.111 nM.
On the same counts, the results for B12 are 1.35 A650 and 0.142 nM.
On the same counts, the results for B13 are 1.3 A650 and 0.112 nM.
Molecule B14 had a Kd of 0.143 nM.
As to B15, the Bmax was found to be 1.35 A650 and the affinity, expressed as Kd, was 0.129 nM.
The like results for B16 were, in that order, 1.29 A650 and 0.109 nM.
The like results for B17 were, in that order, 1.31 A650 and 0.112 nM.
Take B18: the Bmax is 1.4 A650 and the Kd stood at 0.241 nM.

A further assay addresses T2, Human serum albumin (HSA). Description: ELISA on coated human albumin, pH 7.4, HRP detection antibody, A450. This is another data set of the same source.
Description: as §3
Take B1: the half-maximal effective concentration (EC50 (read off the curve)) was around 0.3 nM.

The target in the next assay is T5, Cynomolgus monkey serum albumin (CSA) (cynomolgus monkey, UniProt A2V9Z4 25-608).
T5 construct: Bought protein (Abcam); also called cynomolgus monkey albumin
T5 sequence (A2V9Z4 25-608): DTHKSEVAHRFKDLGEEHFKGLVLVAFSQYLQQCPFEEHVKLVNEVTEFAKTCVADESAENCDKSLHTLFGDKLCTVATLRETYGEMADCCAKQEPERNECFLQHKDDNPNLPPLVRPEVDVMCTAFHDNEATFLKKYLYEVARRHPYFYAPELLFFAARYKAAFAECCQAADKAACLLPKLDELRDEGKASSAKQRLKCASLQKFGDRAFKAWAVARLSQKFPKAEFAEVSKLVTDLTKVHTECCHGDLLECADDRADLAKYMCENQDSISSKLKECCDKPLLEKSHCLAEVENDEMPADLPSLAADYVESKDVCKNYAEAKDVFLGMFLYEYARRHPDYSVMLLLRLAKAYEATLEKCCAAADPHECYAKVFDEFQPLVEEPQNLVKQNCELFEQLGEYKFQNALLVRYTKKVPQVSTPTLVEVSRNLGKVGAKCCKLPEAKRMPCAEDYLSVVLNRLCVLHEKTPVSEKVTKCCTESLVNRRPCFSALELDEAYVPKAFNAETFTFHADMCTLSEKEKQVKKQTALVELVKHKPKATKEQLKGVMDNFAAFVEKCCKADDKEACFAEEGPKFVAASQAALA
Description: ELISA on coated cynomolgus monkey albumin, anti-human Fc HRP, A650, one site-total binding fit.
Description: as §4
B11: the Bmax was found to be 1.31 A650 and binding was put at a Kd of 0.118 nM.
Molecule B12 came in with a Bmax of 1.35 A650 and an equilibrium dissociation constant (Kd) of 0.142 nM.
On the same counts, the results for B13 are 1.29 A650 and 0.117 nM.
On the same counts, the results for B14 are 1.35 A650 and 0.147 nM.
The like results for B15 were, in that order, 1.31 A650 and 0.157 nM.
As for B16, the Bmax was determined as 1.29 A650 and the dissociation constant Kd came out at 0.127 nM.
Regarding B17, the Bmax came out at 1.34 A650 and binding was characterised by a dissociation constant (Kd) of 0.126 nM.
B18 came in with a Bmax of 1.37 A650 and a Kd of 0.181 nM.

Another assay deals with T2, Human serum albumin (HSA). Description: ELISA on coated human albumin, anti-human Fc HRP, A650, one site-total binding fit.
Description: as §4
With B5, the Bmax worked out at 0.957 A650 and binding was put at a Kd of 0.276 nM.
The like results for B6 were, in that order, 0.94 A650 and 0.332 nM.
The like results for B7 were, in that order, 0.955 A650 and 0.428 nM.
The like results for B8 were, in that order, 0.947 A650 and 0.378 nM.

The next assay has as its target T5, Cynomolgus monkey serum albumin (CSA). In words: ELISA on coated cynomolgus monkey albumin, anti-human Fc HRP, A650, one site-total binding fit. The source holds these as a separate data set.
Description: as §4
In turn, B10 displayed a Bmax of 0.994 A650 and an equilibrium dissociation constant (Kd) of 0.338 nM.
The like results for B5 were, in that order, 0.939 A650 and 0.203 nM.
The molecule B6 returned a Bmax of 0.961 A650 and an equilibrium dissociation constant (Kd) of 0.225 nM.
The like results for B8 were, in that order, 0.954 A650 and 0.247 nM.

In the next assay the target is T2, Human serum albumin (HSA). Description: ELISA on coated human albumin, anti-human Fc HRP, A650, one site-total binding fit. The source holds these as a separate data set.
Description: as §4
For B10, the Kd was 0.124 nM.
The molecule B11 returned a Bmax of 1.4 A650 and a Kd of 0.121 nM.
Consider B12, for which the Bmax stood at 1.36 A650 and the Kd amounted to 0.129 nM.
On the same counts, the results for B13 are 1.35 A650 and 0.115 nM.
B14 had a Kd of 0.136 nM.
On to B15, for which the Bmax was found to be 1.34 A650 and binding was characterised by a dissociation constant (Kd) of 0.139 nM.
For B16, the Bmax stood at 1.32 A650 and the affinity, expressed as Kd, was 0.123 nM.
The like results for B17 were, in that order, 1.39 A650 and 0.121 nM.
The like results for B18 were, in that order, 1.43 A650 and 0.151 nM.

Usually EC50 (read off the curve) stands for the concentration giving half of the maximal effect. As a reminder, the Kd is the free concentration of one partner at which half of the binding sites on the other are occupied at equilibrium, for simple one-to-one binding.
